System: MS2 coat protein
Assay: apparent KD of MS2 coat protein; designed switch direction (-1 OFF switch, 1 ON switch): -1; higher = weaker reporter binding
How it was run: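 Designed RNA switches sharing common flanks were transcribed on Illumina chips by stalled E. coli RNA polymerase. They were titrated with SNAP-549-labelled MS2 coat protein, from 0.7 or 1.5 nM doubling to 3 µM, in Tris-HCl pH 7.5 buffer with KCl, MgCl2, BSA, DTT, tRNA and Tween-20. Titrations ran without input, with 200 uM small-molecule ligand, or with an oligonucleotide input. The apparent KD of each design is the median over its clusters, after curve-fitting of normalised cluster fluorescence.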

[1] = input ligand: microRNA oligo, concentration not stated
[2] = Eterna round: R95, input ligand: FMN 200 uM
[3] = Eterna round: R95, input ligand: microRNA oligo, concentration not stated
[4] = Eterna round: R95, input ligand: none

Sequence: GCAGCAUAGUUUACUAACUGUUACAUGAGGAUCACCCAUGUCUAGGAUAUGGUCUGGAUUACAGGCCAGAAGGAGGCAAGCUGC [Eli exng3 - 035] (Eterna round: R96, puzzle: Exclusion NG 3)
- apparent KD of MS2 coat protein (input ligand: FMN 200 uM): 11.8 nM
- apparent KD of MS2 coat protein [1]: 16.8 nM
- apparent KD of MS2 coat protein (input ligand: none): 19.8 nM

Sequence: UUUAACAGAGGAUAUGCGAAUAAAUAAAACUUUUUUUUUUAACAUGAGGAUCACCCAUGUAGAAGGCUGAUAUU [Ex2 #23] (Eterna round: R97, puzzle: Exclusion 2)
- apparent KD of MS2 coat protein (input ligand: FMN 200 uM): 34.9 nM
- apparent KD of MS2 coat protein (input ligand: none): 29.9 nM

Sequence: CUUGUGUCAGGAUAUGCUAAGUAUUCGUUUUACGCGUCUAGGCAGAAGGGACAUGAGGAUCACCCAUGUAACGC [EX4 B.30] (Eterna round: R97, puzzle: Exclusion 4)
- apparent KD of MS2 coat protein (input ligand: FMN 200 uM): 172 nM
- apparent KD of MS2 coat protein (input ligand: none): 133 nM

Sequence: CAGCUGAAUGUGAGGAUAUGUCGAGCCUCGGCUCGAUAGAAGGCACAUGAGGAUCACCCAUGUCUCAACAGCUG [BmEx4/2-C2] (Eterna round: R97, puzzle: Brourd's mod of Exclusion 4)
- apparent KD of MS2 coat protein (input ligand: FMN 200 uM): 258 nM
- apparent KD of MS2 coat protein (input ligand: none): 34 nM

Sequence: AUUUACAAGCUAAGAUCCUACAUGAGGAUCACCCAUGUGGUCCGGUGACGUGAGUCACCGGACUUAGCUCGUCUUGG [salish99_S_TOV1_R5_083] (Eterna round: R97, puzzle: Sensor, turn-off variant 1)
- apparent KD of MS2 coat protein (input ligand: FMN 200 uM): 54.4 nM
- apparent KD of MS2 coat protein (input ligand: none): 61.4 nM

Sequence: UUUAACAAGCCAGAUCCUCACAUGAGGAUCACCCAUGUGCUCGUCUGAUUUUGUACUAUCAUGUGAGUGAUAGUGUU [Level Boss var2-06] (Eterna round: R96, puzzle: Sensor v3, turn-off variant 1)
- apparent KD of MS2 coat protein (input ligand: FMN 200 uM): 200 nM
- apparent KD of MS2 coat protein [1]: 56.9 nM
- apparent KD of MS2 coat protein (input ligand: none): 205 nM

Sequence: UCAAGCUUUAAGCGUGUGAACAUGAGGAUCACCCAUGUAUUUUUGGUUAGGAGUUCUGUAAGGGAUGCUCGUCUUAU [JR_SWV3TOV1_Sub093] (puzzle: Sensor v3, turn-off variant 1)
- apparent KD of MS2 coat protein [2]: 37.4 nM
- apparent KD of MS2 coat protein [3]: 47.5 nM
- apparent KD of MS2 coat protein [4]: 50.7 nM

Sequence: UUUGUGUCAGGAUAUGAGUAGUAGAACAAUAGUACUACUACUCAGAAGGGACAUGAGGAUCACCCAUGUUCCUC [Fiskers Ex 4 Super stable 44 mod 21] (puzzle: Exclusion 4)
- apparent KD of MS2 coat protein [3]: 19 nM

Sequence: UAGAUGGGAGGAUAUACGUAGAUGCAGGUUCGUGUGGUGCUACAUGAGGAUCACCCAUGUAGAAGGCCCGUCUU [JL-ex2-2.29 Mayanne mod] (puzzle: Exclusion 2)
- apparent KD of MS2 coat protein [3]: 13.6 nM

Sequence: CUGAUGUUAGGAUAUCAGGCGCCCGCCACUGGCAAAGCGCAUGAGAAGGGACAUGAGGAUCACCCAUGUAGUAA [Ussoisrebe] (puzzle: Exclusion 4)
- apparent KD of MS2 coat protein [3]: 27.7 nM

Sequence: UAUGGUAAAGUCAGGAUAUACGUGCAGAAUUCUAGGUAGAAGGGACAUGAGGAUCACCCAUGUAUGGUAGUGUU [Ex4 #44] (Eterna round: R97, puzzle: Brourd's mod of Exclusion 4)
- apparent KD of MS2 coat protein (input ligand: FMN 200 uM): 146 nM
- apparent KD of MS2 coat protein (input ligand: none): 104 nM

Sequence: AGAUCACAUGAGGAUCACCCAUGUCAGGAUAUCGUCACUGGAGCUUCGGCUCCAGUGACGAGAAGGGACAAUUA [E1/1-A3] (Eterna round: R97, puzzle: Exclusion 1)
- apparent KD of MS2 coat protein (input ligand: FMN 200 uM): 304 nM
- apparent KD of MS2 coat protein (input ligand: none): 161 nM

Sequence: GCAUUGAGUGUGAGGAUAUGCUGGUCCUUGGAUCAGCAGAAGGCACAUGAGGAUCACCCAUGUGAAAACAAUGC [JL bmx4 3.12] (puzzle: Brourd's mod of Exclusion 4)
- apparent KD of MS2 coat protein [2]: 125 nM
- apparent KD of MS2 coat protein [3]: 19.2 nM
- apparent KD of MS2 coat protein [4]: 20.3 nM

Sequence: ACGAGCUUUUUGCUCGUUUACAUGAGGAUCACCCAUGUGUCUUCGCGCCCGGGCCCGGGCGGGCCCGGGCCCGGGCG [-52.9, -56.9, A 10%] (Eterna round: R97, puzzle: Sensor, turn-off variant 1)
- apparent KD of MS2 coat protein (input ligand: FMN 200 uM): 50.6 nM
- apparent KD of MS2 coat protein (input ligand: none): 57.6 nM

Sequence: CCAGGCGUCUUUGCUCGUCUUAUUUGGAGAGGACUGAUAACAUGAGGAUCACCCAUGUGUGUGGGAGCGUUGCAGUG [JR_SV3TOV2_Sub020] (puzzle: Sensor v3, turn-off variant 2)
- apparent KD of MS2 coat protein [2]: 86.3 nM
- apparent KD of MS2 coat protein [3]: 161 nM
- apparent KD of MS2 coat protein [4]: 116 nM

Sequence: AAAUAACAAGCAAGAUCCUACAUGAGGAUCACCCAUGUGCUCGUCUUAAUAAGUACUAUCACGAAAGUGAUAGUACA [Mat - Sensor v3 - turn-off var 1 - Eli Mod - D60] (puzzle: Sensor v3, turn-off variant 1)
- apparent KD of MS2 coat protein [2]: 383 nM
- apparent KD of MS2 coat protein [3]: 383 nM
- apparent KD of MS2 coat protein [4]: 437 nM

Sequence: UGACUUCAUAUCACAUGAGGAUCACCCAUGUUAUUCAUCUCGUAGGAUAUCGAGGUUUAUUAUUUCGAGAAGGACGUAUUGUUU [JR_ExcNG3_Sub075] (Eterna round: R96, puzzle: Exclusion NG 3)
- apparent KD of MS2 coat protein (input ligand: FMN 200 uM): 68.6 nM
- apparent KD of MS2 coat protein [1]: 44.3 nM
- apparent KD of MS2 coat protein (input ligand: none): 45.5 nM

Sequence: GCACUGCGAGGAUAUACAUGAGGAUCACCCAUGUGUCGGCAGCCAUGUUAUUUCUAAUGUAGAAGGCGCGUAAA [JR_Ex3_Sub001] (Eterna round: R97, puzzle: Exclusion 3)
- apparent KD of MS2 coat protein (input ligand: FMN 200 uM): 125 nM
- apparent KD of MS2 coat protein (input ligand: none): 33 nM

Sequence: GAAAAGGUAGGAUAUACGAAAAAAAAGGGUAGAAAAAAAACACAUGAGGAUCACCCAUGUAGAAGGACCAAAAU [salish99_ex2_r3_051] (puzzle: Exclusion 2)
- apparent KD of MS2 coat protein [2]: 76.9 nM
- apparent KD of MS2 coat protein [3]: 29.2 nM
- apparent KD of MS2 coat protein [4]: 26.7 nM

Sequence: ACAAACAACAUAGGAUAUCUGCGGGUGUCAGUGCUCAUGGAUCUCCACAUGAGGAUCACCCAUGUAGAGAAGGAUGAACGCUUA [Retionzaan] (Eterna round: R96, puzzle: Exclusion NG 2)
- apparent KD of MS2 coat protein (input ligand: FMN 200 uM): 82.4 nM
- apparent KD of MS2 coat protein [1]: 8.9 nM
- apparent KD of MS2 coat protein (input ligand: none): 14.1 nM

Sequence: CAUGGUUAACGAUUAUUCAACAUGAGGAUCACCCAUGUCUCUUUUUCUUUUUGCUCGUCUUAUCCUCCUUUGUUCAC [JR_STOV1_v2_Sub0102] (Eterna round: R97, puzzle: Sensor, turn-off variant 1)
- apparent KD of MS2 coat protein (input ligand: FMN 200 uM): 379 nM
- apparent KD of MS2 coat protein (input ligand: none): 412 nM

Sequence: UAAUUGAUUAAUAAAUAAUACAUGAGGAUCACCCAUGUAGAUCCUACAUACCAUUUAAGUAGCUCGUCUUAUUAUUA [Sensor-V1 #62] (Eterna round: R97, puzzle: Sensor, turn-off variant 1)
- apparent KD of MS2 coat protein (input ligand: FMN 200 uM): 217 nM
- apparent KD of MS2 coat protein (input ligand: none): 213 nM

Sequence: AAUAAGGGAGGAUAUGCGGAACGGUUUGUUCUCAGUGAGGCACAUGAGGAUCACCCAUGUAGAAGGCCCGGCAA [Orinar] (puzzle: Exclusion 2)
- apparent KD of MS2 coat protein [3]: 13 nM

Sequence: GUCAUCAAACAUGGGAUCAACAUGAGGAUCACCCAUGUUGUCAAGUUUUUUGCUCGUCUUAUAAUACGUUUGAUGAC [Mod-Jxb] (Eterna round: R97, puzzle: Sensor, turn-off variant 1)
- apparent KD of MS2 coat protein (input ligand: FMN 200 uM): 16 nM
- apparent KD of MS2 coat protein (input ligand: none): 16.4 nM

Sequence: ACAAGCUUGUAAUGAUUGAACAUGAGGAUCACCCAUGUAAAUGGAAGAACCAAUUUGAUAAGAUAUACUCGUCUUAU [JR_STOV1_Sub007] (Eterna round: R97, puzzle: Sensor, turn-off variant 1)
- apparent KD of MS2 coat protein (input ligand: FMN 200 uM): 57.8 nM
- apparent KD of MS2 coat protein (input ligand: none): 59.1 nM

Sequence: ACAUGAGGAUCACCCAUGUCUGGCUGGUCCGUCUCGGCUGUCGAGGAUAUAGCUCGGUGUCCGCGCUAGAAGGCGGGAGCUGGC [Aenatbe mod 81] (Eterna round: R96, puzzle: Exclusion NG 3)
- apparent KD of MS2 coat protein (input ligand: FMN 200 uM): 135 nM
- apparent KD of MS2 coat protein [1]: 52.2 nM
- apparent KD of MS2 coat protein (input ligand: none): 81 nM

Sequence: AAUUAAGCAAGCAGAUCCCACAUGAGGAUCACCCAUGUGCUCGUCUUAUAAGGUACUGUGACGAAAGUCACGGUACC [Mat - Sensor, turn-off var - Eli Mod - D72] (Eterna round: R97, puzzle: Sensor, turn-off variant 1)
- apparent KD of MS2 coat protein (input ligand: FMN 200 uM): 129 nM
- apparent KD of MS2 coat protein (input ligand: none): 120 nM

Sequence: AGGGAGCGAGGAUAUACAGAGUAGGAAACUACUCCCUCAGUACAUGAGGAUCACCCAUGUAGAAGGCGCCCGAA [EX2 A.1] (Eterna round: R97, puzzle: Exclusion 2)
- apparent KD of MS2 coat protein (input ligand: FMN 200 uM): 38 nM
- apparent KD of MS2 coat protein (input ligand: none): 23.8 nM

Sequence: GUGGGUUACAUGAGGAUCACCCAUGUAUAGUGGGAAGAGAUAUAGGAUAUAAUAUAAAAAUUAUAUUAGAAGGAUAGAGACUAG [AK ExNG3-1.2] (Eterna round: R96, puzzle: Exclusion NG 3)
- apparent KD of MS2 coat protein (input ligand: FMN 200 uM): 491 nM
- apparent KD of MS2 coat protein [1]: 285 nM
- apparent KD of MS2 coat protein (input ligand: none): 505 nM

Sequence: AAACAAACGGGAGGAUAUCGACAUAUUCAACUGCGAGAAGGCCCAAAAGACAUGAGGAUCACCCAUGUAAACCGGGUGAGAAAU [Rimabi] (Eterna round: R96, puzzle: Exclusion NG 1)
- apparent KD of MS2 coat protein (input ligand: FMN 200 uM): 934 nM
- apparent KD of MS2 coat protein [1]: 185 nM
- apparent KD of MS2 coat protein (input ligand: none): 215 nM

Sequence: AAUAACAGAGGAUAUACUGUUUUAUGUGUUUGUUGUUUUGAACAUGAGGAUCACCCAUGUAGAAGGCUGAAUGA [JMF 68] (puzzle: Exclusion 2)
- apparent KD of MS2 coat protein [3]: 24.2 nM

From the supplement of paper PMC9170038
